{
  "source": "patent US20180141975A1",
  "about": "(VIROGIN BIOTECH CANADA, published 2018)",
  "binders": {"B1": {"name": "WT peptide (SEQ ID NO:1, WYRMSPSNQT) (peptide)", "peptide": "WYRMSPSNQT", "notes": "Chemically synthesized peptide found by a peptide array method; also called human WT peptide"}},
  "key": {"[1]": {"target": "T1, recombinant human PD-L1 Fc (human, UniProt Q9NZQ7 19-239)", "T1 construct": "Recombinant reagent; not shown: Fc part", "T1 sequence (Q9NZQ7 19-239 limits assumed)": "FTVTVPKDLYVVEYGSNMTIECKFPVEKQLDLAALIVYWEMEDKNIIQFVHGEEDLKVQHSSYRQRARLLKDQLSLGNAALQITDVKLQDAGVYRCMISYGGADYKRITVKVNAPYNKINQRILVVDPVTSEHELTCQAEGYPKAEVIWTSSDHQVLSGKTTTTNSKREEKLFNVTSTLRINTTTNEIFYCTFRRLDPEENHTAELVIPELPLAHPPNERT", "test": "summary of the examples (competition ELISA, peptide array)"}, "[2]": {"target": "T1, recombinant human PD-L1 Fc", "test": "competition ELISA, peptides and combinations at 3 and 10 uM against human PD-1 Fc on coated human PD-L1 Fc (FIG. 5A)"}, "mouse PD-L1 Fc": {"target": "T2, mouse PD-L1 Fc (mouse, UniProt Q9EP73 19-238)", "T2 construct": "Plate-coated reagent; not shown: Fc part", "T2 sequence (Q9EP73 19-238 limits assumed)": "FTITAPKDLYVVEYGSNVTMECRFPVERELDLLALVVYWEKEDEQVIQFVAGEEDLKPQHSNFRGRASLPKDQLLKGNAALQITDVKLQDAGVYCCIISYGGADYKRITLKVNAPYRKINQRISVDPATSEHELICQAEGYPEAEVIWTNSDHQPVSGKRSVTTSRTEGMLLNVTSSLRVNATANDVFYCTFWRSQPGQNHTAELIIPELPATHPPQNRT", "test": "competition ELISA, peptide at 3 and 10 uM against mouse PD-1 Fc on coated mouse PD-L1 Fc (FIG. 9A)", "method": "More specifically, mouse and human WT and TF peptides (3 and 10 μM) were mixed with recombinant mouse PD-1 Fc and bound to a mouse PD-L1 Fc coated 96-well Immuno Maxisorp flat bottom plate. Binding was detected via a biotinylated anti-mouse PD-1 antibody, streptavidin-horseradish peroxidase (HRP), and 3,3′, 5,5′ Tetramethylbenzidine (TMB) substrate. Absorbance measurements were collected at 450 nm via a plate reader. The increased percent (%) of mouse (and human) PD-1/PD L1 inhibition was compared to a control (no peptide) sample. […] The differences between the human and mouse peptides are illustrated in FIG. 9B."}},
  "data": [
    {"binder": "B1", "values": [
      {"measurement": "binding result", "setting": "[1]", "value": "binds"}
    ]},
    {"binder": "EYRMSPSNQT (A derivative of the WT peptide (W1E))", "note": "[ET peptide (SEQ ID NO:25, EYRMSPSNQT)]", "values": [
      {"measurement": "binding result", "setting": "[2]", "value": "binds"}
    ]},
    {"binder": "YYRMSPSNQT (A derivative of the WT peptide (W1Y))", "note": "[YT peptide (SEQ ID NO:28, YYRMSPSNQT)]", "values": [
      {"measurement": "binding result", "setting": "[2]", "value": "binds"}
    ]},
    {"binder": "WNRLSPSNQT", "note": "[Mouse WT peptide (SEQ ID NO:35, WNRLSPSNQT)]", "values": [
      {"measurement": "binding result", "setting": "mouse PD-L1 Fc", "value": "binds"}
    ]},
    {"binder": "TRYPSPSPKPEGRF", "note": "[Mouse TF peptide (SEQ ID NO:36, TRYPSPSPKPEGRF)]", "values": [
      {"measurement": "binding result", "setting": "mouse PD-L1 Fc", "value": "binds"}
    ]}
  ]
}
